Tests used:
[1] = tested on: Axl-positive cells (MDA-MB-231); experiment: Flow cytometry binding to Axl-positive cells; design: species or system human
Method: Different concentrations of chimeric antibody was tested in flow cytometry for binding to triple-negative breast cancer cell line MDA-MB-231. The bound chimeric antibody was detected with APC-conjugated donkey F(ab′)2 fragments specific for either mouse IgG (H+L), 1:500 dilution, or human IgG (H+L), 1:300 dilution, respectively (both from Jackson ImmunoResearch). The cell staining was measured using Accuri C6 flow cytometer (BD Biosciences). MFI, geometric mean fluorescence intensity.
For flow cytometry, the adherent cells in culture were washed with PBS, detached by trypsin (0.25%) treatment for 1 min and hitting culture dish for full detachment. Trypsin was quenched by adding into the tissue flask the complete medium followed by washing the cells with PBS. […]
The purified chimeric antibodies (>95% purity) were analysed for binding to Axl-positive breast cancer cell line MDA-MB-231 in flow cytometry. […] The cell-bound antibodies were detected with APC-conjugated donkey anti-human or anti-mouse, respectively, IgG (H+L) F(ab′)2 fragments (Jackson ImmunoResearch). […]
For flow cytometry, the adherent cells in culture were washed with PBS, detached by treatment with trypsin (0.25%) for 1 min. […] The cell-bound antibodies were detected with APC-conjugated donkey anti-human IgG (H+L) F(ab′)2 fragments (Jackson ImmunoResearch Laboratories #709-136-149, 1:400 dilution). […]

[2] = molecular target: T1, human Axl (rhAxl-Fc chimera) (Homo sapiens, UniProt P30530); experiment: Biacore kinetic analysis (surface plasmon resonance) on immobilised rhAxl-Fc; type: binding; conditions: rhAxl immobilized on Biacore sensor chip, 25° C., 1:1 Langmuir binding model
T1 construct: Soluble recombinant antigens corresponding to the extracellular domains of members of the human TAM receptor family; Fc; purchased R&D Systems 154-AL
Method: Kinetic analysis of murine MAb 10G5 interacting with rhAxl immobilized on the surface of the Biacore sensor chip. Overlay plots of sensograms for different antibody concentrations (0.3-166.7 nM for murine 10G5) are shown. The precise kinetic analysis was performed using BIA evaluation software and curve fitting according to 1:1 Langmuir binding model. […]
Affinity determination of anti-Axl antibody 10G5 was performed at 25° C. by surface plasmon resonance measurements using Biacore 3000 instrument (GE Healthcare). As a solid antigen-coated surface, a sensor chip CM5 with immobilized rhAxl-Fc chimera (R&D Systems, Cat. no. 154-AL) at density 190 RU was used.
For the kinetics measurements, different concentrations of anti-Axl antibodies (from 0.3 to 666.7 nM) in HBS-EP buffer (Biacore, Cat. no. BR-1001-88) were injected at flow rate of 30 μL/min with 3 min injection time followed by 5 min dissociation (buffer alone). After each cycle, the surface was regenerated by 30 sec injection of a regeneration solution (10 mM HCl, 1 M NaCl) at flow rate 50 μL/min.
The kinetic association (on-rate, kon) and dissociation (off-rate, koff) rates were calculated using BIAevaluation software and 1:1 Langmuir binding model. The equilibrium dissociation constant (KD) was calculated as the koff/kon ratio. The half-life (t1/2) of the formed antibody-antigen complexes was calculated as the ln 2/koff ratio. […]

B1: murine 10G5: mouse monoclonal anti-human Axl antibody from hybridoma WR-10G5-E5; VH SEQ ID NO: 28, VL SEQ ID NO: 29 (antibody, listed as Mus musculus, V domains shown)
VH: QVQLQQSGAELVRPGASVKLSCKASGYSFTDFYINWVRQRPGQGLEWIARIFPGGDNTYYNEKFKGKATLTAEESSSTAYIQLSSLTSEDSAVYFCARRGLYYAMDYWGQGISVTVSS
VL: DVLMTQTPLSLPVSLGDQASISCRSSQSLVHSNGIPYLHWYLQKPGQSPKLLIYRVSNRFSGVPDRFSGSGSGTDFTLKISRVEAEDLGVYFCSQGTHVPPTFGGGTKLEIK
modifications: (1)..(118) Mus musculus 10G5 VH domain; (1)..(112) Mus musculus 10G5 VL domain
In the case of B1, the “Binding to Axl+ cells in flow cytometry (clone selection)” value ([1]; Example 1) is reported as “specific binding”, the “Off-rate (koff)” value [2] is reported as 0.000439 s⁻¹ and the “On-rate (kon)” value [2] is reported as 829000 M⁻¹ s⁻¹.

B2: c10G5: chimeric (mouse variable/human constant) IgG1 antibody with the 10G5 VH and VL (antibody, V domains shown)
VH: QVQLQQSGAELVRPGASVKLSCKASGYSFTDFYINWVRQRPGQGLEWIARIFPGGDNTYYNEKFKGKATLTAEESSSTAYIQLSSLTSEDSAVYFCARRGLYYAMDYWGQGISVTVSS
VL: DVLMTQTPLSLPVSLGDQASISCRSSQSLVHSNGIPYLHWYLQKPGQSPKLLIYRVSNRFSGVPDRFSGSGSGTDFTLKISRVEAEDLGVYFCSQGTHVPPTFGGGTKLEIK
In the case of B2, the “Binding to Axl-positive MDA-MB-231 cells in flow cytometry” value ([1]; titration of antibody, APC-conjugated secondary) is reported as “Dose-dependent binding”, the “Off-rate (koff)” value [2] is reported as 0.000169 s⁻¹ and the “On-rate (kon)” value [2] is reported as 1.64e+06 M⁻¹ s⁻¹.

— US11732048B2, “Anti-axl antagonistic antibodies” (BERGEN TEKNOLOGIOVERFØRING AS, priority 2016, dated 2023)
